Source: patent US11932673
Positions count from the first letter of the chain named.

B1: E08 (KnotBody with EET 5-3 framing) (scFv, V domains shown)
VH: EVQLVESGGGLVRPGGSLRLSCAASGFTFSSYAMSWVRQAPGKGLEWVSAISGSGGSTYYADSVKGRFTISRDNTKNSLYLQMTSLRADDTAFYYCVKDFGPGYGTGWFDYWGPGTLVTVSS
VL: AVNWYQQLPGKAPKLLIYAAGGCGPNGFCGSGSDGGVCPRILMRCKQDSDCLAGCGIQSGIPERFSGSKSGTSASLAISGLRSEDEADYYCAAWDDNLSGYVFGTGTKLTVLG
B2: G11 (KnotBody with EET 5-3 framing) (scFv, V domains shown)
VH: B1 VH
VL: AVNWYQQLPGKAPKLLIYAAGGCGPNGFCGSGSDGGVCPRILMRCKQDSDCLAGCGQSSGVSDRFSGSKSGTSATLDITGLQTGDEADYYCGTWDNSLSVGVFGGGTKVTVLG
B3: E03 (KnotBody with EET 5-3 framing) (scFv, V domains shown)
VH: B1 VH
VL: AVNWYQQLPGKAPKLLIYAAGGCGPNGFCGSGSDGGVCPRILMRCKQDSDCLAGCGRNSGIPERFSGSKSGHTATLTISRVEAGDEADYYCQVWDSSSDHVLFGGGTKLTVLG
B4: F01 (KnotBody with EET 5-3 framing) (scFv, V domains shown)
VH: B1 VH
VL: YLNWYQQKPGKAPKLLIDAAGECGPNGFCGSGSDGGVCPRINMRCKQDSDCLAGCGRDSGVPSRFSGSGSGTDFTLTISSLQPEDFATYYCQQSYSTPWTFGQGTKVEIKR
B5: F07 (KnotBody with EET 5-3 framing) (scFv, V domains shown)
VH: B1 VH
VL: B1 VL with I57G, I61V, E63D, G80R, R82Q, N97S, S99N, G100A, L109V
B6: F03 (KnotBody with EET 5-3 framing) (scFv, V domains shown)
VH: B1 VH
VL: B1 VL with K11R, S33G, I57A, Q58H, N97S, S99N, Y101W, T105G, L109V
B7: E05 (KnotBody with EET 5-3 framing) (scFv, V domains shown)
VH: B1 VH
VL: B1 VL with I57A, R82Q, D88H, N97S, S99N, L109V
B8: E09 (KnotBody with EET 5-3 framing) (scFv, V domains shown)
VH: B1 VH
VL: B1 VL with I57T, N97S, S99R, G100A, K108Q

Target: trypsin
Assay: monoclonal phage ELISA

ELISA signal | Binder
121000 | B1
27600 | B2
82500 | B3
102000 | B4
72800 | B5
68000 | B6
119000 | B7
70300 | B8
